The results in this text go back to article PMC10663602.

The target of the experiment is teleost IgM Fc (tFcµ): truncated teleost IgM heavy chain consisting of CHµ3, CHµ4 and the Tp (Oncorhynchus mykiss (rainbow trout)). In words: cryo-EM structure; purified tFcµ tetramer fractions in TBS (20 mM Tris-HCl, NaCl, pH 7.8), 0.1 mg/mL on grids; map at 2.78 Å, C2 symmetry.

Substance “teleost IgM Fc (tFcµ): truncated teleost IgM heavy chain consisting of CHµ3, CHµ4 and the Tp (domain or fragment)” yielded a stoichiometry N of 4.

In general, stoichiometry N refers to a count of units in the complex or per binding partner.
